Patent US8163516B2 (Algenol Biofuels Inc., priority 2008, dated 2012)
Read-outs that look alike come from different tables or passages of the source.

What was measured:
[1] = system: Zymomonas mobilis ADH I (ZmAdhI, AAV89860), SEQ ID NO:2; conditions: literature values; ranges given jointly for ADH I and ADH II; cited from earlier work
[2] = system: Zymomonas mobilis ADH II (ZmAdhII); conditions: literature values; ranges given jointly for ADH I and ADH II; cited from earlier work
[3] = target: T1, Synechocystis sp. PCC 6803 alcohol dehydrogenase SynAdh (slr1192, BAA18840), wild type, SEQ ID NO:4, overexpressed, crude extract (Synechocystis sp. PCC 6803, UniProt P74721); assay: Acetaldehyde reduction by crude extract of Synechocystis overexpressing SynAdh, varied cosubstrate (Lineweaver-Burk); type: biochemical; conditions: pH 6.1
T1 construct: PCC 6803; crude cell extract
T1 sequence (P74721 1-336): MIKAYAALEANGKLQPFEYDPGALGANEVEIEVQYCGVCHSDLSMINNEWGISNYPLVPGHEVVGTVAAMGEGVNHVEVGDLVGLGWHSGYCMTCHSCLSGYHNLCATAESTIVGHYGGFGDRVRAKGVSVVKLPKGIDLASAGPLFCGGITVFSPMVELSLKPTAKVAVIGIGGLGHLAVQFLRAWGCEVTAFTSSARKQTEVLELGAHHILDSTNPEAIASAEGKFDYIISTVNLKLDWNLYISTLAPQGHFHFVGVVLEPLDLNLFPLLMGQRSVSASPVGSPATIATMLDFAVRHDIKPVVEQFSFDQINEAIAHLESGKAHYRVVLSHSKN
Method: The Adh enzyme from Synechocystis was further characterized by preparing crude cell extracts from Synechocystis PCC6803 overexpressing SynAdh.
For preparation of crude extracts, cells were pelleted, dissolved in buffer supplemented with 1 mM DTT and broken (beadbeater, 2×10 min, glass beads with 100 μm diameter). The supernatant of a centrifugation (15 min, 14000 rpm, 4° C., Micro 200R, Hettich) was used for the experiments.
The Adh activity was measured as rate of the increase of the absorbance at 340 nm. […] The reaction was started by addition of an acetaldehyde solution to a final concentration of 0.125 mM and the rate of decrease of the absorbance at 340 nm was measured. […] Protein was determined by the method of Lowry.
Measurements were performed at pH 6.1.

[4] = system: Zymomonas mobilis ADH II (with Pdc) in intact Synechocystis PCC 6803 cells, strain 6803-pVZ-PisiA (pVZ-PisiA-Pdc-AdhII); assay: Ethanol production by intact cells of strain 6803-pVZ-PisiA after addition of acetaldehyde (Lineweaver-Burk); type: cell-based, Synechocystis PCC 6803 (Zymomonas mobilis AdhII)
Method: Methods: Synechocystis PCC 6803 wild type and the transgenic strain “6803-pVZ-PisiA”, corresponding to the above described Synechocystis pVZ-PisiA-Pdc-AdhII, were washed twice with BG11 (centrifugation 15 min, 4500 rpm, 4° C.; Rotina 420R, Hettich) and redissolved in BG11. Aliquots of 2 ml were spiked with acetaldehyde. The assays were incubated at room temperature under illumination. Samples of 250 μl were removed in defined time intervals (5 min or 10 min) and centrifuged (3 min, 14000 rpm, room temperature, Micro 200R, Hettich).
Ethanol was quantified with a described protocol. The method is based on oxidation of ethanol catalyzed by alcohol dehydrogenase (Sigma, Adh of S. cerevisiae). NADH formed in this reaction, reacts with the PMS/MTT reagent to a dye.
OD750 of the culture was 0.56.
This experiment was repeated with a different culture of strain 6803-pVZ-PisiA of OD750 of 1.353 and a chlorophyll concentration of 4.6 μg/ml. Similar results were obtained.

[5] = system: Zymomonas mobilis ADH II, crude extract of Synechocystis strain 6803-pVZ-PisiA (pVZ-PisiA-Pdc-AdhII); assay: Adh activity of crude extract of strain 6803-pVZ-PisiA in the direction of ethanol formation (Lineweaver-Burk); type: biochemical; conditions: for Km: read-out: Km for acetaldehyde
Method: For preparation of crude extracts, cells were harvested, washed with 40 mM MES/Tris (pH 6.5), 1 mM DTT and broken (beadbeater, 2×10 min). The supernatant of a centrifugation (15 min, 14000 rpm, 4° C., Micro 200R, Hettich) was used for the determination of Adh activity in cells.
The initial velocity was calculated from the dE/min at 340 nm.
In order to compare the dates acquired with intact cells, the kinetic constants of alcohol dehydrogenase in crude extracts of strain 6803-pVZ-PisiA were measured. […] A graphical representation of the results obtained is given in form of a “Lineweaver-Burk” plot (FIG. 8).
In a second experiment the Adh activity was measured at pH 7.5. NADH and NADPH were used as co-substrates.

[6] = substrate: NC(=O)C1=CN([C@@H]2O[C@H](COP(=O)(O)OP(=O)(O)OC[C@H]3O[C@@H](n4cnc5c(N)ncnc54)[C@H](O)[C@@H]3O)[C@@H](O)[C@H]2O)C=CC1; assay: cells, lysate or membranes; conditions: other: acetaldehyde reduction, crude extract, pH 6.1
[7] = substrate: NC(=O)C1=CN([C@@H]2O[C@H](COP(=O)(O)OP(=O)(O)OC[C@H]3O[C@@H](n4cnc5c(N)ncnc54)[C@H](OP(=O)(O)O)[C@@H]3O)[C@@H](O)[C@H]2O)C=CC1; assay: cells, lysate or membranes; conditions: other: acetaldehyde reduction, crude extract, pH 6.1
[8] = substrate: CCO; assay: purified protein, by the assay type; conditions: other: ethanol oxidation
[9] = substrate: NC(=O)C1=CN([C@@H]2O[C@H](COP(=O)(O)OP(=O)(O)OC[C@H]3O[C@@H](n4cnc5c(N)ncnc54)[C@H](O)[C@@H]3O)[C@@H](O)[C@H]2O)C=CC1; assay: purified protein, by the assay type; conditions: other: acetaldehyde reduction
[10] = substrate: NC(=O)C1=CN([C@@H]2O[C@H](COP(=O)(O)OP(=O)(O)OC[C@H]3O[C@@H](n4cnc5c(N)ncnc54)[C@H](OP(=O)(O)O)[C@@H]3O)[C@@H](O)[C@H]2O)C=CC1; assay: purified protein, by the assay type; conditions: other: acetaldehyde reduction
[11] = substrate: NC(=O)c1ccc[n+]([C@@H]2O[C@H](COP(=O)([O-])OP(=O)(O)OC[C@H]3O[C@@H](n4cnc5c(N)ncnc54)[C@H](O)[C@@H]3O)[C@@H](O)[C@H]2O)c1; assay: purified protein, by the assay type; conditions: other: ethanol oxidation
Method: (§1) Fraction 2 of the purification was used for the measurement of the kinetic parameters of the SynAdh as described in the following.
(§2) Both ethanol oxidation and acetaldehyde reduction were analyzed at different pH values. Experiments were made at pH 7.5 in presence of high concentrations of KCl in order to mimic the intracellular conditions.
For measurements at pH 8.5 HEPES/KOH was substituted by 30 mM Tris/HCl (pH 8.5), KCl was omitted.
(§3) The Km and vmax values of SynAdh for the different substrates were determined with Lineweaver-Burk plots.

[12] = substrate: NC(=O)c1ccc[n+]([C@@H]2O[C@H](COP(=O)([O-])OP(=O)(O)OC[C@H]3O[C@@H](n4cnc5c(N)ncnc54)[C@H](OP(=O)(O)O)[C@@H]3O)[C@@H](O)[C@H]2O)c1; assay: purified protein, by the assay type; conditions: other: ethanol oxidation
[13] = substrate: CC=O; assay: Acetaldehyde reduction (forward reaction) by purified SynAdh, Km determination; type: biochemical, Synechocystis sp. PCC 6803; conditions: other: acetaldehyde reduction
Method: as §1, §2
For measurements at pH 6.0 HEPES/KOH was substituted by 30 mM MES/KOH (pH 6.0), KCl was omitted.
as §3

[14] = pH 7.5, NADH 0.25 M or NADPH 0.21 M

CCO [ethanol]
Km [1]: 24 µM | Km [2]: 140 µM

NC(=O)C1=CN([C@@H]2O[C@H](COP(=O)(O)OP(=O)(O)OC[C@H]3O[C@@H](n4cnc5c(N)ncnc54)[C@H](OP(=O)(O)O)[C@@H]3O)[C@@H](O)[C@H]2O)C=CC1 [NADPH]
vmax for NADPH [3]: 0.4 μMol min^−1 ml^−1 crude extract

CC=O [acetaldehyde]
Km ([4]; OD750 0.56): 18 µM | Vmax ([4]; OD750 0.56): 3.2 µmol/L/min | Vmax ([4]; repeat, OD750 1.353): 4.35 µmol/L/min | Km ([4]; repeat, OD750 1.353, chlorophyll 4.6 μg/ml): 25 µM | Vmax ([4]; repeat, using chlorophyll as reference): 0.95 µmol/L/mg | Vmax ([5]; pH 6.5, NADH in excess): 7.2 μMol L^−1 mg^−1 chlorophyll | Km ([5]; pH 6.5, NADH in excess): 45 µM | Vmax [5, 14]: 0.89 μMol L^−1 mg^−1 chlorophyll | Km [5, 14]: 100 µM

NC(=O)C1=CN([C@@H]2O[C@H](COP(=O)(O)OP(=O)(O)OC[C@H]3O[C@@H](n4cnc5c(N)ncnc54)[C@H](O)[C@@H]3O)[C@@H](O)[C@H]2O)C=CC1 [NADH, reduced nicotinamide-adenine dinucleotide]
vmax for NADH [3]: 1.6 μMol min^−1 ml^−1 crude extract

NC(=O)c1ccc[n+]([C@@H]2O[C@H](COP(=O)([O-])OP(=O)(O)OC[C@H]3O[C@@H](n4cnc5c(N)ncnc54)[C@H](O)[C@@H]3O)[C@@H](O)[C@H]2O)c1 [NAD^+, nicotinamide-adenine dinucleotide]
Km [1]: 73 µM | Km [2]: 110 µM

B1: Synechocystis sp. PCC 6803 alcohol dehydrogenase SynAdh (slr1192, BAA18840), wild type, SEQ ID NO:4, overexpressed, crude extract (Synechocystis sp. PCC 6803 … (protein)
chain: T1 sequence (P74721 1-336)
Km [6]: 1000 µM | Km [7]: 15 µM

B2: Synechocystis sp. PCC 6803 alcohol dehydrogenase SynAdh (slr1192, BAA18840), wild type, SEQ ID NO:4, purified (Synechocystis sp. PCC 6803 substr. Kazusa) (protein)
chain: T1 sequence (P74721 1-336)
Km ([8]; pH 7.5, 150 mM KCl, pH 7.5): 23 mM mM | Km ([8]; pH 8.5): 59 mM mM | Km ([9]; pH 7.5, 150 mM KCl, pH 7.5): 1000 μM μM | Km ([9]; purified enzyme): 1000 µM | Km ([10]; pH 6.0): 20 μM μM | Km ([10]; pH 7.5, 150 mM KCl, pH 7.5): 15 μM μM | Km ([10]; purified enzyme): 15 µM | Km ([11]; pH 7.5, 150 mM KCl, pH 7.5): 10 mM mM | Km ([11]; pH 8.5): 10 mM mM | Km ([12]; pH 7.5, 150 mM KCl, pH 7.5): 15 μM μM | Km ([12]; pH 8.5): 15 μM μM | Km ([13]; pH 6.0): 200 μM μM | Km ([13]; pH 7.5, 150 mM KCl, pH 7.5): 180 μM μM | Km ([13]; purified enzyme): 200 µM
